The source of these data is PMC7442819, “Taf14 recognizes a common motif in transcriptional machineries and facilitates their clustering by phase separation” (Nature Communications, 2020).

B1: Snf5_(771–800) [Saccharomyces cerevisiae] / Taf14ET (Taf14_(174–244)) [Saccharomyces cerevisiae] (parent)
chain 1: SPPCYIIDHIPGHSLLLSIKLPGKVNTKEE
chain 2: KGSVDLEKLAFGLTKLNEDDLVGVVQMVTDNKTPEMNVTNNVEEGEFIIDLYSLPEGLLKSLWDYVKKNTE
B2: Ino80_(368–390) [Saccharomyces cerevisiae] / Taf14ET (Taf14_(174–244)) [Saccharomyces cerevisiae] (parent)
chain 1: DSKLNIKITLKQYHVKRLKKLIN
chain 2: B1 chain 2
B3: Taf14ET (Taf14_(174–244)) [Saccharomyces cerevisiae] / Sth1EBM (Sth1_(1183–1240)) [Saccharomyces cerevisiae] (parent)
chain 1: EVKSSSVEIINGSESKKKKPKLTVKIKLNKTTVLENNDGKRAEEKPESKSPAKKTAAK
chain 2: B1 chain 2

Variants of B1 are the subject of the first test. Description: ITC. The conditions noted are these: with Taf14ET (Taf14_(174–244)) [Saccharomyces cerevisiae].
Regarding chain 1 L17A, the screen value is 0.55 kcal/mol.
The same measure, in the same setting: with chain 1 I19A the figure was 0.52 kcal/mol.

Variants of B2 are the subject of a further test. Description: ITC. The conditions noted are these: with Taf14ET (Taf14_(174–244)) [Saccharomyces cerevisiae].
chain 1 L10A: the screen value was determined as 3.42 kcal/mol.
On the same count and under the same terms, in the case of chain 1 I6A it was 4.41 kcal/mol.

A further test covers variants of B3. Description: ITC. To be noted: with Sth1EBM (Sth1_(1183–1240)) [Saccharomyces cerevisiae].
As to chain 2 F47A, the screen value stood at 8.16 kcal/mol.
Still for that read-out and setting: in the case of chain 2 F47R it was 5.99 kcal/mol; in that of chain 2 I49R, 1.21 kcal/mol.

The same test, now with this note: with Taf14ET (Taf14_(174–244)) [Saccharomyces cerevisiae].
For chain 1 L22A, the screen value is 7.23 kcal/mol.
Same read-out and setting: in the case of chain 1 L28A it was 5.27 kcal/mol; in that of chain 1 V24A, 6.7 kcal/mol.
